The DeepSol protein solubility set

Experiment: soluble on expression in E. coli; label from the status in PepcDB or PDB records

**Q.** For “MGSDKIHHHHHHMHYRQYGRTGRLISRFSLGLMRCLDSAAQLEAVLDAAWRLGINHFETAQSYGPSEAYLAQALHSLQLPRDQVIITTKILPDRDPQQMVEAVLRSRDRLGIDSIDCLALHGLNQPEHLQQAIAALPALQTLQAEGVFQHLGFSSHGDRELILEAIATDAFDFVSLHYYLLFQRHAPVIEAAAAKNLGIFIISPVDKGGLLHQPSAQLIEDCQPFSPLALNYRFLLSDRRITTLSFGAAKAEELAVLQDFVDADQPLSLEEAEAIARLEQVRQQRLGRDYCQQCYACLPCPEAINIPEVLRLRNLAIAHDMQAYGRYRYRMFENAGHWFPGQRGSRCTDCGDCLPRCPHHLPIADLVRDADQRLAGAPRRRLWGD”, which “soluble on expression in E. coli” value is on record?
**A.** not soluble

**Q.** For “GHMYQHHNWQGALLDYPVSKVVCVGSNYAKHIKEMGSAVPEEPVLFIKPETALCDLRQPLAIPSDFGSVHHEVELAVLIGATLRQATEEHVRKAIAGYGVALDLTLRDVQGKMKKAGQPWEKAKAFDNSCPLSGFIPAAEFTGDPQNTTLSLSVNGEQRQQGTTADMIHKIVPLIAYMSKFFTLKAGDVVLTGTPDGVGPLQSGDELTVTFDGHSLTTRVLGS”, which “soluble on expression in E. coli” value is on record?
**A.** soluble

**Q.** Which “soluble on expression in E. coli” value does the source give for “MTGERIEKVKINDEFAKSHFLTTQWRETKRQRHYKMPVTEQGLRERIESAIPQVYHIIVTDLSYGCGQSFDIVVVSDFFQGKSKLMRSRAVNKAVKEELQEIHAFSCKCYTEEEWSKIVV” here?
**A.** soluble

**Q.** Which “soluble on expression in E. coli” value does the source give for “MGRNDSEFPSDEELKKLAGKIKGAAIRANTKILKSYDPDTYGNYLDQLDGIRSQAEWLGTAFDDFLKPSPWDFDDMLKALDEIASDLGQAVGETEIKNGIVQGRIDTTKQFLGEGGWKGALADSFKMDYLEPIGSHIAANQGAVTLVTHDGLQAMRDIYGKARENLKDLGEKAVTAFEQADGISASDLKTLLTVLSAAFGLGTAVLSAFAPAAAAGAGIASALVSGGIAVGSDKVGEDEESELAADYPDKVEENFKNALEKLKEQITTMEDELIKVLQKGTSDIASIVWGEKLDRLNGFSALFGMGNQSLLAPKVPDLSMVAFGDDPGKLKDGLVQVSG” here?
**A.** not soluble

**Q.** Which “soluble on expression in E. coli” value does the source give for “MGSDKIHHHHHHLFLNSLKLKDFRNYKSLQVDFSNSINVLIGDNAQGKTNLLEAIYILSMARSHRDNNDRDLINWSSDFSDITGEVQSKMGKFPLEVRITRTGKKVFVNHLTENRLSDYIGNLHTVLFAPEDLDLVKGSPGVRRKFIDSEFGQMSANYLFNLLQYRSVLKNRNAYLKNIKWIGNNPKIDEDYLKVLNDQLIDFGSEIIFQRFVLVKELEKYSYQIHKAISRNEKLTIKYASFSGIDDQSTKEEISKIFNNQLLKNKTRELFLKSTSVGPHHDDLKFSINGKEVGSFASQGQQRTTALSVRLAEIEMMKYETGEYPILLLDDVLSELDGDRQTQLLNFIQDKVQTFLTTTSLSDVERDLIKDPKIYQVKGGTLVNG” here?
**A.** not soluble

**Q.** For “MGSDKIHHHHHHMENVSSVTSDGSVADVHAERWQELLARLDADAPDIAEGTAAKLLATIPGYELVDAGPIRESSIRNTALIIRVINAGTEPKAEDLPEALRLADERIAQNVPLGSVLHGFRMSLGEILEHLVQLGPEYNIDPGRMLRWSTLMWAVNDAFSTRATRVYRDHEVATAIADSVRRSEWIGKAVSEGSELSELLWGAAMYDVPADTPLRALAATSPDHAKAETQIQKWTQRAGVRVLASVQPSVIVGIVIGEPKRNVDGPGFAVGLGRAEVLSKLADSYKDASLVLKAADNLKLNEVQRAQDLSWKLAIHASPRVTEILAQKYVKPLRESGEFAHEIVESLRAYVDNQMNIPAAARSIPVHVNTLRYRLRRFEELTGCYLEDTSTVIEVSWVLEVFGREL”, which “soluble on expression in E. coli” value is on record?
**A.** not soluble

**Q.** With “MSSSSSSRIHNGEDVYEKAEEYWSRASQDVNGMLGGFEALHAPDISASKRFIEGLKKKNLFGYFDYALDCGAGIGRVTKHLLMPFFSKVDMEDVVEELITKSDQYIGKHPRIGDKFVEGLQTFAPPERRYDLIWIQWVSGHLVDEDLVDFFKRCAKGLKPGGCIVLKDNVTNHEKRLFDDDDHSWTRTEPELLKAFADSQLDMVSKALQTGFPKEIYPVKMYALKPQHTGFTNN” as the sequence, how does the “soluble on expression in E. coli” value read?
**A.** not soluble

**Q.** With “MGSDKIHHHHHHMAKHPLVMALAKVIIAAAWADGELSLDEVNDLKRLLAELGQTGGQFALTADDWAELEIYLYSPVEAAERARLIADLRDLIITPGQQQLVLQAIERLLIADRVLTPVEREVAQEIQRALTQDSQSLLFQIGRAFRLALGIRAGGPNREDLLPEFMRNRIYYALQIRLGQHIDEFGLDRDELHVLTLAGGLLARVAYVDKQVTPAEHDRIVAILKEWWQLDDTQAALVAEVALDESAASLDFFRLTKAFADATTVERRQRFLDALFAVALADGELSGAESAEISRITAAINLPHDSFVAARLRLPRQPGKRL” as the sequence, how does the “soluble on expression in E. coli” value read?
**A.** not soluble

**Q.** With “TDFIWNLTWMGSTVTNKVLKLTGESPEIIKGVFSIKEGMPINTYYMAKSAGVDPATGAQLYWVYDKDDNGNITNEYISSDYQKAANSKYYSGSRIPDLYGSINTDFSYKNFDLSILGTYSIGGKVYDSLYAGSMEVMYAGNTWNKHALRRWQQPGDITDVPRIQIGGSYTTSDRFLVDASYFAIKNITLGYTIPKQWLKKAGLESVRIFGSVDNLALFSHLDGMDPQYNFKGETDYSYAPNKTYSVGFEINF” as the sequence, how does the “soluble on expression in E. coli” value read?
**A.** not soluble

**Q.** Which “soluble on expression in E. coli” value does the source give for “MYQDLIRNELNEAAETLANFLKDDANIHAIQRAAVLLADSFKAGGKVLSCGNGGSHCDAMHFAEELTGRYRENRPGYPAIAISDVSHISCVSNDFGYDYIFSRYVEAVGREGDVLLGISTSGNSGNVIKAIAAAREKGMKVITLTGKDGGKMAGTADIEIRVPHFGYADRIQEIHIKVIHILIQLIEKEMVK” here?
**A.** not soluble

**Q.** For “MGSDKIHHHHHHMIYLEQFTFPDGDRESIFFQDKVKRTCYDSYYPFQVLPGRGLERLDFDLITILYGGNGSGKSTLLNIIAEKTEIPRDAIYNKSNFFPDYVAMCEMQLKVFLPEHSRIITSDDVFDYMLNIRSLNEGIDRKREQLFDDYLEAKYSRFQLKSLADYEELKRVNHARFNSQSRFVRNELMDNAREYSNGENAFRYFTEKIDEKGLYLLDEPENSLSPKRQLELVQFIEDSARFWQCQFIIATHSPFLLALRGAKIYNLDETPVAVKRWTELENVRIYYDFFKKREREF”, which “soluble on expression in E. coli” value is on record?
**A.** not soluble

**Q.** Which “soluble on expression in E. coli” value does the source give for “MSLPPRPYDNRPPTGVRAKPVINLNIEYTSCNDSVAPACSTRPMLIENMINQRNVNINVLEGYDPKSKSVINQHSIYHLYEFESKTRFLDRIPRPRVSRFTELKTRFLCCRYVLCAIDDVMQKQKPMELMAIRLNGDIYIGANKSMDLQTDKKTQEAAFGGLNFAMKVTRESDQKILKKHHSVVKQLRIENTRNSMSMSIFVSSVARAFDQRGNVVELKTVGSKVMGKVQNLSRLKARDWWLRALLSGADRIVYGLRMDNMKVNEIHEAQLTDFTKGHFRFDGAKLFSEIFKIFSTIDKIIGAEGDMCMVKSDGSTPISVTLTTRESLKRSPFW” here?
**A.** not soluble

**Q.** For “MSLKHVAVYLRLSRGEDESELDNHKTRLLNRCELNNWSYELYKEIGSGSTIDDRPVMQKLLTDVEKNLYDAVLVVDLDRLSRGNGTDNDRILYSMKVSETLIVVESPYQVLDANNESDEEIILFKGFFARFEFKQINKRMREGKKLAQSRGQWVNSVTPYGYIVNKTTKKLTPSEEEAKVVIMIKDFFFEGKSTSDIAWELNKRKIKPRRATEWRSSSIANILQNEVYVGNIVYNKSVGNKKPSKSKTRVTTPYRRLPEEEWRRVYNAHQPLYSKEEFDRIKQYFECNVKSHKGSEVRTYALTGLCKTPDGKTMRVTQGKKGTDDDLYLFPKKNKHGDSSIYKGISYNVVYETLKEVILQVKDYLDSVLDQNENKDLVEELKEELMKKEDELETIQKAKNRIVQGFLIGLYDEQDSIELKVEKEKEIDEKEKEIEAIKMKIDNAKTVNNSIKKTKIERLLSDVQSAESEKEINRFYKTLIKEIIVDRTDENEAKIKVNFLEGHHHHHH”, which “soluble on expression in E. coli” value is on record?
**A.** not soluble

**Q.** For “MVKLENKPTIISTGTIVGPKEGEGPLKDYFDMIMTDDLYGEKTWELAESKMVETASQQAIQKAGKKLSDVNYMLGGDLINQIVPASFAARELAIPFLGIYGACSTMAEGLCIGSMLIDGGFADLVLSGTSSHYCTAERQFRFPLELGNQKPMTAQWTVTGAGSVLLAPNGDGPKVKYVTVGKVIDEGIDDGNNMGPAMAPAAIDTIYSYFEDTNDDPNSFDIIATGDLGTLGKQIAEDFLKEKGVDISKVYTDCGIEMFNLKEQDVHCGGSGCGCSATVFAGYIYDKLRKKEFNKVMLVSTGALLSPTSTLQKQTIPCVAHAVVIVNELEHHHHHH”, which “soluble on expression in E. coli” value is on record?
**A.** not soluble

**Q.** For “MISLFSPCHLSAALLISALSIVPTNAAPSPVSSPFTVNATVLTGCVLGGGATDSSNFGSINFGNITSLATAINATSGLNAGTITIQCNGNPSVTLALNSGANMTGNISAGRHLLNSSTGEYLLYQIYQNSPRTLIWGDGSNGGATQVIATDGTLQQVILYAQLFASNTQPTAGVYLDTLLVTVTY”, which “soluble on expression in E. coli” value is on record?
**A.** not soluble

**Q.** With “MSKIASEVVATTLNDWYIAIKKQKVDESIKYYSEIKKLFDEMEEDQEVLAYYSLLEERHKMLLHSSRGEPLQKHTYFTEDNQNFITKTNDKLEYNFYLFEAMYEAYNKNYDRAINLYGLAEKKLAEIPDEIEAAEFYSKVSYLYTLVKQSIVAQHYIKNAISIYKRHPDYKCKLATSTMIAAANYADMKRFEEAEQYYLEAIDIAKETKDEFLKAQLFHNLSIVYSDWNKPDKCIESLEKAIGNESWLHSIYYINSLFMMIKELFKIDEKMKAINFYNKAQERLILMENKVYEAKISILYNLYCGELKNNFNNCISNIEFLKQQNELESVDELSYIAAKRFESIGAFEEATSFFNAKIWAEQKMNQVEGIL” as the sequence, how does the “soluble on expression in E. coli” value read?
**A.** not soluble

**Q.** Which “soluble on expression in E. coli” value does the source give for “PAKRAFSNADQFVETMLPLAKEAAARIGVDPVMLVAQAALETGWGKSIMRQQDGSSSHNLFGIKAAGSWKGAEARAITSEFRDGKMVKETADFRSYDSYADSFHDLVSLLQNNNRYKDVVNSADKPEQFVKELQKAGYATDPAYASKISQIAKQMKS” here?
**A.** not soluble

**Q.** For “MAHHHHHHMRLLRLSTKVGMESNNAALRAHLLSLRGTEPVGDPKNPLHVQLQIHDGHRNTLLSHTKELYVTALQHHPETFVNVIPLLPLSDDESSPSNDGGASNDSITLFNAASMTADRGFTPLFSHVALGGTFDRLHAGHKLLLTTALFYASKSLRIGVTLESMLKKKTYGSYIEPFETRCKLVSEFLYSVRRDIDVTVVGITEPSGGTNRDAEIEALVVSPETAGVLASINDERASYGLKPLECIQIPYVSAEGDGRVSSTELRRRLHENASGAN”, which “soluble on expression in E. coli” value is on record?
**A.** soluble

**Q.** For “MSLTAPHIVDPAGLLGEALSEASPDLMRSLLQTVINALLSADADAVVGAEWGQPTPGRRSQRNGYRHRGLDTRVGTIDVAVPKLRKGTYFPDWLLERRKRAESALITVVADCYLAGVSTRRMDKLVKTLGIDSLSKSQVSRMATDLDEHVEQFRHRPLDSAGPFTFVAADALTMKVREGGRVVNGVVLLATGVNGDGHREVLGMRVVTSETGPAWNEFFADLVARGLAGVRLVTSDAHAGLREAIAANLPGAAWQRCRTHYAANLMSICPKSMWPAVKAMLHSVYDQPDAPAVAAQFDRLIDYVTDKLPAVAEHLSAAREDILAFTAFPKDVWTQIWSNNPAVIWSPAVGVVDVRHEASGSLVLLSGRGYLQPSRKQSLRRKSACYTGGFANLVGEGHHHHHH”, which “soluble on expression in E. coli” value is on record?
**A.** soluble

**Q.** Which “soluble on expression in E. coli” value does the source give for “MEILYIKGDATAPIGSGVKVITHICNDIGGWGKGFVLALSKKWKMPEEAYRQWYKSQEEFTLGAVQFVNVENKLYVANMIGQHGIYKDSKGLPPIRYDAVRQCLKEVALFTIAHKASVHMPRIGCGLAGGKWELMEQIIKEELITKEIAVTVYDLMAGDPLEHHHHHH” here?
**A.** soluble

**Q.** With “MTDTAENQTQNNWQAGHPRSIRSFVLRQSHMTAAQQRAIDTLWDSFGIDYQATPADLDARFGSSRPKILEIGFGMGTATAEIARRLPETDFLAIDVHGPGVGNLLKLIDENHLENIRVMRHDAVEVVENMLQDGSLDGIHIFFPDPWHKKRHHKRRLIQAPFIAKLLPKLKTGGYIHLATDWEEYAQQMLEVLSSFDSLQNTAADYAPTPDYRPETKFEARGKRLGHGVWDLVFKRIG” as the sequence, how does the “soluble on expression in E. coli” value read?
**A.** not soluble
